Data as given in patent US20120316071A1.
Each block holds one substance with its values, some of them ahead of it.

Key:
[1] = target: rHuman ErbB2/Fc Chimera, CF (R&D Systems Cat#1129-ER) (human) (UniProt P04626); test: MSD Multispot ECL, antigen spotted on plate, Fab in solution; blank spot of the row 300
[2] = target: rHuman CD44/Fc Chimera, CF (R&D Systems Cat#3660-CD) (human) (UniProt P16070); test: as above
[3] = target: rHuman IGF-1 sR, (IGF-1 sR), CF (R&D Systems Cat#391-GR) (human) (UniProt P08069); test: as above
[4] = target: rHuman ErbB2/Fc Chimera, CF (R&D Systems Cat#1129-ER) (human) (UniProt P04626); test: MSD Multispot ECL, antigen spotted on plate, Fab in solution; blank spot of the row 351
[5] = target: rHuman IGF-1 sR, (IGF-1 sR), CF (R&D Systems Cat#391-GR) (human) (UniProt P08069); test: as above
[6] = target: rHuman ErbB2/Fc Chimera, CF (R&D Systems Cat#1129-ER) (human) (UniProt P04626); test: MSD Multispot ECL, antigen spotted on plate, Fab in solution; blank spot of the row 424
[7] = target: rHuman CD44/Fc Chimera, CF (R&D Systems Cat#3660-CD) (human) (UniProt P16070); test: as above
[8] = target: rHuman IGF-1 sR, (IGF-1 sR), CF (R&D Systems Cat#391-GR) (human) (UniProt P08069); test: as above
[9] = target: rHuman ErbB2/Fc Chimera, CF (R&D Systems Cat#1129-ER) (human) (UniProt P04626); test: ECL (MSD) multispot binding assay, antigen spotted on the plate, Fab in solution; blank spot of this well 213
[10] = target: rHuman EGF R/Fc Chimera, CF (R&D Systems Cat#344-ER) (human) (UniProt P00533); test: as above
[11] = target: rHuman HGF R/c-MET/Fc Chimera, CF (R&D Systems Cat#358-MT/CF) (human) (UniProt P08581); test: as above
[12] = target: rHuman CD44/Fc Chimera, CF (R&D Systems Cat#3660-CD) (human) (UniProt P16070); test: as above
[13] = target: rHuman IGF-1 sR, CF (R&D Systems Cat#391-GR) (human) (UniProt P08069); test: as above
[14] = target: rHuman Notch-1/Fc Chimera, CF (R&D Systems Cat#3647-TK) (human) (UniProt P46531); test: as above
[15] = target: rHuman ErbB2/Fc Chimera, CF (R&D Systems Cat#1129-ER) (human) (UniProt P04626); test: MSD Multispot ECL, antigen spotted on plate, Fab in solution; blank spot of the row 240
[16] = target: rHuman CD44/Fc Chimera, CF (R&D Systems Cat#3660-CD) (human) (UniProt P16070); test: as above
[17] = target: rHuman IGF-1 sR, (IGF-1 sR), CF (R&D Systems Cat#391-GR) (human) (UniProt P08069); test: as above
[18] = target: rHuman ErbB2/Fc Chimera, CF (R&D Systems Cat#1129-ER) (human) (UniProt P04626); test: MSD Multispot ECL, antigen spotted on plate, Fab in solution; blank spot of the row 337
[19] = target: rHuman IGF-1 sR, (IGF-1 sR), CF (R&D Systems Cat#391-GR) (human) (UniProt P08069); test: as above
[20] = target: rHuman ErbB2/Fc Chimera, CF (R&D Systems Cat#1129-ER) (human) (UniProt P04626); test: MSD Multispot ECL, antigen spotted on plate, Fab in solution; blank spot of the row 373
[21] = target: rHuman IGF-1 sR, (IGF-1 sR), CF (R&D Systems Cat#391-GR) (human) (UniProt P08069); test: as above
[22] = target: rHuman Erythropoietin R/Fc Chimera, CF (R&D Systems Cat#963-ER) (human) (UniProt P19235); test: ECL multispot (MSD) binding assay, antigen spotted on plate; further: test concentration or dose not given here
[23] = target: rHuman ErbB2/Fc Chimera, CF (R&D Systems Cat#1129-ER) (human) (UniProt P04626); test: MSD Multispot ECL, antigen spotted on plate, Fab in solution; blank spot of the row 297
[24] = target: rHuman CD44/Fc Chimera, CF (R&D Systems Cat#3660-CD) (human) (UniProt P16070); test: as above
[25] = target: rHuman IGF-1 sR, (IGF-1 sR), CF (R&D Systems Cat#391-GR) (human) (UniProt P08069); test: as above
[26] = target: rHuman ErbB2/Fc Chimera, CF (R&D Systems Cat#1129-ER) (human) (UniProt P04626); test: MSD Multispot ECL, antigen spotted on plate, Fab in solution; blank spot of the row 316
[27] = target: rHuman IGF-1 sR, (IGF-1 sR), CF (R&D Systems Cat#391-GR) (human) (UniProt P08069); test: as above
[28] = target: rHuman Erythropoietin R/Fc Chimera, CF (R&D Systems Cat#963-ER) (human) (UniProt P19235); test: ECL Multispot (MSD), antigen spotted, Fab 5.00 (column head 'Fab [µM]'); blank 268
[29] = target: rHuman EGF R/Fc Chimera, CF (R&D Systems Cat#344-ER) (human) (UniProt P00533); test: as above
[30] = target: rHuman Erythropoietin R/Fc Chimera, CF (R&D Systems Cat#963-ER) (human) (UniProt P19235); test: ECL Multispot (MSD), antigen spotted; Fab 5 (µM); blank 102; first of duplicates
[31] = target: rHuman Erythropoietin R/Fc Chimera, CF (R&D Systems Cat#963-ER) (human) (UniProt P19235); test: MSD ECL multispot assay, antigen spotted on plate, Fab in solution; blank spot of this row 282; further: test concentration or dose not given here
[32] = target: rHuman Erythropoietin R/Fc Chimera, CF (R&D Systems Cat#963-ER) (human) (UniProt P19235); test: ECL Multispot (MSD), antigen spotted; Fab 0.50 (µM); blank 95; first of duplicates
[33] = target: rHuman Erythropoietin R/Fc Chimera, CF (R&D Systems Cat#963-ER) (human) (UniProt P19235); test: MSD ECL multispot assay, antigen spotted on plate, Fab in solution; blank spot of this row 274; further: test concentration or dose not given here
[34] = target: rHuman Erythropoietin R/Fc Chimera, CF (R&D Systems Cat#963-ER) (human) (UniProt P19235); test: ECL Multispot (MSD), antigen spotted, Fab 0.50 (column head 'Fab [µM]'); blank 206
[35] = target: rHuman EGF R/Fc Chimera, CF (R&D Systems Cat#344-ER) (human) (UniProt P00533); test: as above
[36] = target: rHuman Erythropoietin R/Fc Chimera, CF (R&D Systems Cat#963-ER) (human) (UniProt P19235); test: ECL Multispot (MSD), antigen spotted, Fab 500.00 (column head 'Fab [µM]'); blank 495
[37] = target: rHuman EGF R/Fc Chimera, CF (R&D Systems Cat#344-ER) (human) (UniProt P00533); test: as above
[38] = target: rHuman Erythropoietin R/Fc Chimera, CF (R&D Systems Cat#963-ER) (human) (UniProt P19235); test: ECL Multispot (MSD), antigen spotted, Fab 50.00 (column head 'Fab [µM]'); blank 223
[39] = target: rHuman EGF R/Fc Chimera, CF (R&D Systems Cat#344-ER) (human) (UniProt P00533); test: as above
[40] = target: rHuman Erythropoietin R/Fc Chimera, CF (R&D Systems Cat#963-ER) (human) (UniProt P19235); test: ECL Multispot (MSD), antigen spotted; Fab 50 (µM); blank 332; first of duplicates
[41] = target: rHuman Erythropoietin R/Fc Chimera (human) (UniProt P19235); test: ECL multispot (MSD) binding assay; antigen spotted on plate, Fab in solution; further: test concentration or dose not given here
[42] = target: rHuman Erythropoietin R/Fc Chimera, CF (R&D Systems Cat#963-ER) (human) (UniProt P19235); test: MSD ECL multispot assay, antigen spotted on plate, Fab in solution; blank spot of this row 277; further: test concentration or dose not given here
[43] = target: rHuman Erythropoietin R/Fc Chimera, CF (R&D Systems Cat#963-ER) (human) (UniProt P19235); test: ECL Multispot (MSD), antigen spotted; Fab 500 (µM); blank 570; first of duplicates
[44] = target: rHuman Erythropoietin R/Fc Chimera, CF (human) (UniProt P19235); test: ECL multispot (MSD) assay, antigen spotted on the plate, Fab in solution; blank spot of the same well 284; further: test concentration or dose not given here

Substance: Fab VH5-51_IGHD5-18*01>3_IGHJ4*01 G100K/G104T I34A & V3-4_IGLJ1*01
ECL signal [1]: 1150
ECL signal [2]: 608
ECL signal [3]: 923

Substance: Fab VH5-51_IGHD5-18*01>3_IGHJ4*01 G100K/G104T T30A & V3-4_IGLJ1*01
ECL signal [4]: 1070
ECL signal [5]: 968

Substance: Fab VH5-51_IGHD5-18*01>3_IGHJ4*01 G100K/G104T (KT) & V3-4_IGLJ1*01
ECL signal [6]: 1100
ECL signal [7]: 579
ECL signal [8]: 877
ECL signal [9]: 1100
ECL signal [10]: 768
ECL signal [11]: 867
ECL signal [12]: 540
ECL signal [13]: 781
ECL signal [14]: 437
ECL signal [15]: 1070
ECL signal [16]: 633
ECL signal [17]: 964

Substance: Fab VH5-51_IGHD5-18*01>3_IGHJ4*01 G100K/G104T F29A & V3-4_IGLJ1*01
ECL signal [18]: 1040
ECL signal [19]: 945

Substance: Fab VH1-46_IGHD6-6*01_IGHJ1*01 S102A/S103P/S104F/H111F (APFF) & L6_IGKJ1*01 S31A
ECL signal [22]: 461

Substance: Fab VH5-51_IGHD5-18*01>3_IGHJ4*01 G100K/G104T S28A & V3-4_IGLJ1*01
ECL signal [26]: 1070
ECL signal [27]: 924

Substance: Fab VH1-46_IGHD6-6*01_IGHJ1*01 S102A/S103P/S104F/H111F (APFF) & L6_IGKJ1*01 S31Y
ECL signal [44]: 604

More lines, now with the values ahead:

ECL signal [20]: 869
ECL signal [21]: 879
Substance: Fab VH5-51_IGHD5-18*01>3_IGHJ4*01 G100K/G104T G24A & V3-4_IGLJ1*01

ECL signal [23]: 911
ECL signal [24]: 624
ECL signal [25]: 899
Substance: Fab VH5-51_IGHD5-18*01>3_IGHJ4*01 G100K/G104T G35A & V3-4_IGLJ1*01

ECL signal [28]: 423
ECL signal [29]: 303
ECL signal [30]: 294
ECL signal [31]: 1060
ECL signal [32]: 122
ECL signal [33]: 473
ECL signal [34]: 298
ECL signal [35]: 266
ECL signal [36]: 4970
ECL signal [37]: 2900
ECL signal [38]: 879
ECL signal [39]: 552
ECL signal [40]: 736
ECL signal [41]: 433
ECL signal [42]: 467
ECL signal [43]: 4720
Substance: Fab VH1-46_IGHD6-6*01_IGHJ1*01 S102A/S103P/S104F/H111F (APFF) & L6_IGKJ1*01
